Laboratory results: article PMC3507442

Molecular target: vimentin (Rat2) (UniProt P31000)
Assay: co-immunoprecipitation with Flag-Beclin 1
Conditions: reference: wild-type Flag-Beclin 1; sites S234,S295

- binding against the reference: weaker
Substance: Beclin 1 (from UniProt Q14457) S234A/S295A (AA)
